What all share (experiment): cross-linking
The target in test [1] is Z protein with Cys at residue 6, fused to maltose binding protein.
The target is the same in test [2]. The source holds these as a separate data set.
In test [3] the target is Z protein with N-epsilon-fluoroacetyllysine at residue 24, fused to maltose binding protein.
Test [4] shares this target. This is another data set of the same source.
For test [5], the target named is Z protein with N-epsilon-fluoroacetyllysine at residue 6, fused to maltose binding protein.
The target is the same in test [6]. The source holds these as a separate data set.

Crosslinking yield and crosslinking efficiency data for three substances are collected here from publication PMC5310709.

Like-named read-outs stand apart in the source and are kept apart here.

Regarding “Zspa Affibody (Afb) with N-epsilon-fluoroacetyllysine at position 36 (designed binder)”, the crosslinking yield in test [1] came to 33%. The crosslinking efficiency in test [2] was 88%.

With “Zspa Affibody (Afb) with Cys at position 7 (designed binder)”, the results for the crosslinking yield in test [3] and in test [4] were 12% and 34%, respectively.

“Zspa Affibody (Afb) with Cys at position 36 (designed binder)”: the figures for the crosslinking yield in test [5] and in test [6] were 24% and 64%, respectively.
